The results in this text go back to PMC4971505 (2016).

Usually Kd stands for the constant that tells how readily two partners part at equilibrium. Lower therefore signals a tighter complex.

Assay [1] deals with M3 muscarinic acetylcholine receptor (Homo sapiens, UniProt P20309). The assay can be described thus: 3H-NMS radioligand pseudocompetition binding (allosteric model).
The target in assay [2] is T1, M1 muscarinic acetylcholine receptor (Homo sapiens, UniProt P11229).
T1 chain: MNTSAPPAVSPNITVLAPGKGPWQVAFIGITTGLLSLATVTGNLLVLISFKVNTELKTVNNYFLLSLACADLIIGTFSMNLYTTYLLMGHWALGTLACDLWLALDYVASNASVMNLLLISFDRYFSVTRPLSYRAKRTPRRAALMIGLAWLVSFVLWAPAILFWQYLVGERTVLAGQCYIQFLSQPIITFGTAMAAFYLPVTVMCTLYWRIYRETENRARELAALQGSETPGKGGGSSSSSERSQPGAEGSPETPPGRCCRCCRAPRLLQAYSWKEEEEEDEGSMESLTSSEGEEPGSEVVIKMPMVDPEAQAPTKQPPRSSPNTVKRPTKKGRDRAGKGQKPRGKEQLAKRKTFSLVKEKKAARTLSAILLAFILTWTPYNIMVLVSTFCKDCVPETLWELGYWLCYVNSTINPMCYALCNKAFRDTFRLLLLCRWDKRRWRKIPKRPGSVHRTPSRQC
Described as above.

Sequence of M3 muscarinic acetylcholine receptor (P20309 whole entry): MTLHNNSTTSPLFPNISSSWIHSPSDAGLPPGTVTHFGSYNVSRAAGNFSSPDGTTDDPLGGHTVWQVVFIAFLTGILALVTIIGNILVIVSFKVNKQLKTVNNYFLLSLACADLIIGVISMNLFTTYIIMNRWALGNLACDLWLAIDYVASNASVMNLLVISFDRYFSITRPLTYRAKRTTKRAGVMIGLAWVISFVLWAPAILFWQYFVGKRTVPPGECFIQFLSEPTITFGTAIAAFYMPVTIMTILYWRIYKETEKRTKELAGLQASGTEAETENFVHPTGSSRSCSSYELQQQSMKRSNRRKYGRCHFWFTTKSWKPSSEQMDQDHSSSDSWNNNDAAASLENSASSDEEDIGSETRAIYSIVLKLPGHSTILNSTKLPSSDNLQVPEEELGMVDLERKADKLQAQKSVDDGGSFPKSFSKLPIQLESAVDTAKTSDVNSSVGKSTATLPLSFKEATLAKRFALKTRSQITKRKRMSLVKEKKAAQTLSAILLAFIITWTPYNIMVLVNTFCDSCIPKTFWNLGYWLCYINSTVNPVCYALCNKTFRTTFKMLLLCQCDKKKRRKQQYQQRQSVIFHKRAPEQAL

B1: SLURP-2 (protein)
chain: IWCHQCTGFGGCSHGSRCLRDSTHCVTTATRVLSNTEDLPLVTKMCHIGCPDIPSLGLGPYVSIACCQTSLCNHD
In the case of B1, the Kd in assay [1] was determined as 144 nM; in assay [2], 231 nM.
